Laboratory results as given in PMC5180085.

What was measured:
[1] = target: T1, BamHI restriction endonuclease (UniProt P23940 1-213); assay: mwPIFE; 5 mM Ca2+; mwPIFE, room temp, 30 min: BamHI 10 mM Tris-HCl pH 8, 100 mM KCl, 0.02% Triton X-100, 0.1 mg/ml BSA, 5 mM EDTA/MgCl2/CaCl2; Ku 35 mM Tris-Cl pH 7.9, 5.5% glycerol, 150 mM KCl, 1 mM EDTA, 0.1 mM DTT, 1.5 mM imidazole; XPF/ERCC1 10 mM Tris-Cl pH 8, 10 mM NaCl. FA: 10 mM Tris-HCl pH 8, 10 mM NaCl, 10% glycerol, 1 mM TCEP, 50 nM DNA, 25 C; conditions: protein: commercial; chain copies: 2; label: 5' biotin strand 1; 5' Cy3 strand 2; blunt
T1 sequence: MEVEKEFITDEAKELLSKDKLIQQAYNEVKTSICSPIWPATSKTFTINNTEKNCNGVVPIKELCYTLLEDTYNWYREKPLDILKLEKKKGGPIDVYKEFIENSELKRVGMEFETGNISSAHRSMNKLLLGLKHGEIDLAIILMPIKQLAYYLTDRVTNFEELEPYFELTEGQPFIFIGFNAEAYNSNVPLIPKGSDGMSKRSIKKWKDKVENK

[2] = target: T1, BamHI restriction endonuclease; assay: competition; Ca2+; mwPIFE, 1-10x excess; mwPIFE, room temp, 30 min: BamHI 10 mM Tris-HCl pH 8, 100 mM KCl, 0.02% Triton X-100, 0.1 mg/ml BSA, 5 mM EDTA/MgCl2/CaCl2; Ku 35 mM Tris-Cl pH 7.9, 5.5% glycerol, 150 mM KCl, 1 mM EDTA, 0.1 mM DTT, 1.5 mM imidazole; XPF/ERCC1 10 mM Tris-Cl pH 8, 10 mM NaCl. FA: 10 mM Tris-HCl pH 8, 10 mM NaCl, 10% glycerol, 1 mM TCEP, 50 nM DNA, 25 C; conditions: protein: commercial; chain copies: 2; blunt
Ku70;Ku80 [3] = target: T2, Ku70;Ku80 (human;human, UniProt P12956;P13010 1-609;1-732, |); assay: mwPIFE; mwPIFE, room temp, 30 min: BamHI 10 mM Tris-HCl pH 8, 100 mM KCl, 0.02% Triton X-100, 0.1 mg/ml BSA, 5 mM EDTA/MgCl2/CaCl2; Ku 35 mM Tris-Cl pH 7.9, 5.5% glycerol, 150 mM KCl, 1 mM EDTA, 0.1 mM DTT, 1.5 mM imidazole; XPF/ERCC1 10 mM Tris-Cl pH 8, 10 mM NaCl. FA: 10 mM Tris-HCl pH 8, 10 mM NaCl, 10% glycerol, 1 mM TCEP, 50 nM DNA, 25 C; conditions: protein: recombinant;recombinant, tags: ;, copies: 1;1, label: 5' biotin strand 1, blunt
T2 sequence (P12956 whole entry, chain 1 of 2): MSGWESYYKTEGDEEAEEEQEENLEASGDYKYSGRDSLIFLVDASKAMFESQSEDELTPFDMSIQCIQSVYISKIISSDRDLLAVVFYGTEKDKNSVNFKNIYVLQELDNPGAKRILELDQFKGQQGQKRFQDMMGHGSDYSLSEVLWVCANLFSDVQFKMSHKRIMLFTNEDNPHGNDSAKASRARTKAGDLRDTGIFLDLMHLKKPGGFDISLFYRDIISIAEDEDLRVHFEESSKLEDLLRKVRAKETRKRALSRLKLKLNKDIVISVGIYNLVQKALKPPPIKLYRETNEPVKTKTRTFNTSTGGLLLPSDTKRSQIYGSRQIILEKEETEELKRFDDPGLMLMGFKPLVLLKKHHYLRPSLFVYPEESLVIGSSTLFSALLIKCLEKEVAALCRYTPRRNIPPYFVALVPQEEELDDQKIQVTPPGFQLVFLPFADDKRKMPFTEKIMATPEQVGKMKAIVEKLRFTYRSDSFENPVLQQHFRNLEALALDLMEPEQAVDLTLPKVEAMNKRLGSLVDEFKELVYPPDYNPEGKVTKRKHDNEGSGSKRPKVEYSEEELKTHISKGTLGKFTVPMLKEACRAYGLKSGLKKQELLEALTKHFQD
T2 sequence (P13010 whole entry, chain 2 of 2): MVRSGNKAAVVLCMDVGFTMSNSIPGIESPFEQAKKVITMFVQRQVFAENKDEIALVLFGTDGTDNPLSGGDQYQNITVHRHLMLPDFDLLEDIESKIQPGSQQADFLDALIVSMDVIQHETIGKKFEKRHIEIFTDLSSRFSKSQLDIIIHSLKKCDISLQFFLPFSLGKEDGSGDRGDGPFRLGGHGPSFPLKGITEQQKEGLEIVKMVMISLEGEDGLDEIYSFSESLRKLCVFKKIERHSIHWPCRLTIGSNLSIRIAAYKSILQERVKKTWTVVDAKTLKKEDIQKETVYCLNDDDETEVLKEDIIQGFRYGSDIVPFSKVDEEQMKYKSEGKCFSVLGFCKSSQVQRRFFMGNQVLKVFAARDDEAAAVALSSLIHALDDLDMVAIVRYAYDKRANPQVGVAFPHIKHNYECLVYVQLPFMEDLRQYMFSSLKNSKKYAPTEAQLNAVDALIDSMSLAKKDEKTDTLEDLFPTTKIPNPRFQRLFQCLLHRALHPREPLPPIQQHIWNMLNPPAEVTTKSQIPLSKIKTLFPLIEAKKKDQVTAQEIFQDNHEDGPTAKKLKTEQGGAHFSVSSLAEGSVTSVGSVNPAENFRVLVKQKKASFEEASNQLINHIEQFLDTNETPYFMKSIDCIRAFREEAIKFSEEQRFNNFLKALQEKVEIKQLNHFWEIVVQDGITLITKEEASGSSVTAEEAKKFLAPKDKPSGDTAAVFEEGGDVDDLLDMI

Ku70;Ku80 [4] = target: T2, Ku70;Ku80; assay: mwPIFE; internal Cy3, lower PIFE than terminal; mwPIFE, room temp, 30 min: BamHI 10 mM Tris-HCl pH 8, 100 mM KCl, 0.02% Triton X-100, 0.1 mg/ml BSA, 5 mM EDTA/MgCl2/CaCl2; Ku 35 mM Tris-Cl pH 7.9, 5.5% glycerol, 150 mM KCl, 1 mM EDTA, 0.1 mM DTT, 1.5 mM imidazole; XPF/ERCC1 10 mM Tris-Cl pH 8, 10 mM NaCl. FA: 10 mM Tris-HCl pH 8, 10 mM NaCl, 10% glycerol, 1 mM TCEP, 50 nM DNA, 25 C; conditions: protein: recombinant;recombinant; tags: ;; copies: 1;1; label: 5' biotin-TEG strand 1; 3' biotin-TEG strand 2; iCy3; blunt; one end free
[5] = target: T3, XPF (truncated);ERCC1 (truncated) (human;human, UniProt Q92889;P07992 640-916;93-297, |); assay: fluorescence anisotropy; mwPIFE, room temp, 30 min: BamHI 10 mM Tris-HCl pH 8, 100 mM KCl, 0.02% Triton X-100, 0.1 mg/ml BSA, 5 mM EDTA/MgCl2/CaCl2; Ku 35 mM Tris-Cl pH 7.9, 5.5% glycerol, 150 mM KCl, 1 mM EDTA, 0.1 mM DTT, 1.5 mM imidazole; XPF/ERCC1 10 mM Tris-Cl pH 8, 10 mM NaCl. FA: 10 mM Tris-HCl pH 8, 10 mM NaCl, 10% glycerol, 1 mM TCEP, 50 nM DNA, 25 C; conditions: protein: recombinant;recombinant, tags: none;GST-His6 N-terminal, removed by TEV, copies: 1;1
T3 sequence 1: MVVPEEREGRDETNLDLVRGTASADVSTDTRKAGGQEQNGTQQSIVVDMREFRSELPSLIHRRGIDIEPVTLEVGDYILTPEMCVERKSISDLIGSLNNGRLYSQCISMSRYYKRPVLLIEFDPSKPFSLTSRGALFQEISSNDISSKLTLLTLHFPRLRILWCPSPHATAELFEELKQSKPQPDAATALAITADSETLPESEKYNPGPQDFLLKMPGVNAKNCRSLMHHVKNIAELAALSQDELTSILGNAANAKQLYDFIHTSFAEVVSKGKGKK
T3 sequence 2: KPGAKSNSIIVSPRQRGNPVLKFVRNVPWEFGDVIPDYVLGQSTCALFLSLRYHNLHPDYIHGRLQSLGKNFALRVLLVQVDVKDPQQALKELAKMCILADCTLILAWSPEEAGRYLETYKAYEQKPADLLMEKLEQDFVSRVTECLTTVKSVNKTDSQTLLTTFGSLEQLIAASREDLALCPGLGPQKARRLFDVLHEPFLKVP

Ku70;Ku80 [6] = target: T2, Ku70;Ku80; assay: mwPIFE; internal Cy3, PIFE falls with distance from free end; mwPIFE, room temp, 30 min: BamHI 10 mM Tris-HCl pH 8, 100 mM KCl, 0.02% Triton X-100, 0.1 mg/ml BSA, 5 mM EDTA/MgCl2/CaCl2; Ku 35 mM Tris-Cl pH 7.9, 5.5% glycerol, 150 mM KCl, 1 mM EDTA, 0.1 mM DTT, 1.5 mM imidazole; XPF/ERCC1 10 mM Tris-Cl pH 8, 10 mM NaCl. FA: 10 mM Tris-HCl pH 8, 10 mM NaCl, 10% glycerol, 1 mM TCEP, 50 nM DNA, 25 C; conditions: protein: recombinant;recombinant; tags: ;; copies: 1;1; label: 5' biotin-TEG strand 1; 3' biotin-TEG strand 2; iCy3; blunt; one end free
Ku70;Ku80 [7] = target: T2, Ku70;Ku80; assay: mwPIFE; mwPIFE, room temp, 30 min: BamHI 10 mM Tris-HCl pH 8, 100 mM KCl, 0.02% Triton X-100, 0.1 mg/ml BSA, 5 mM EDTA/MgCl2/CaCl2; Ku 35 mM Tris-Cl pH 7.9, 5.5% glycerol, 150 mM KCl, 1 mM EDTA, 0.1 mM DTT, 1.5 mM imidazole; XPF/ERCC1 10 mM Tris-Cl pH 8, 10 mM NaCl. FA: 10 mM Tris-HCl pH 8, 10 mM NaCl, 10% glycerol, 1 mM TCEP, 50 nM DNA, 25 C; conditions: protein: recombinant;recombinant; tags: ;; copies: 1;1; label: 5' biotin strand 1; 5' Cy3 strand 2; blunt

B1: C_f/C_r (no BamHI site) (dsDNA)
DNA 1: CACAACGACCACCTAGATAGAGCCAAGCAGTTTACGTACCGTCATTCCCTTCCACGTCATCGAGCTACCGTCGTC
DNA 2: GACGACGGTAGCTCGATGACGTGGAAGGGAATGACGGTACGTAAACTGCTTGGCTCTATCTAGGTGGTCGTTGTG
[1]
  binding result: no binding

B2: B-GC* competitor (one base changed in BamHI site) (dsDNA)
DNA 1: CACAACGCCTGATCCGGCCTAGAT
DNA 2: ATCTAGGCCGGATCAGGCGTTGTG
[2]
  binding result: no binding

B3: Btn_25BamHI1_f/Cy3_25BamHI1_r (dsDNA)
DNA 1: CACAACGACCACCTAGATGGATCCA
DNA 2: TGGATCCATCTAGGTGGTCGTTGTG
[1]
  binding result: binds

B4: Btn_11_f/Cy3_11_r (dsDNA)
DNA 1: AGATAGAGCCA
DNA 2: TGGCTCTATCT
Ku70;Ku80 [3]
  binding signal: 7 % PIFE

B5: BtnT_15_Cy3_15 (internal Cy3 15 nt from free end) (dsDNA)
DNA 1: TTGCATCCTTCACAACGACCACCTAGATAG
DNA 2: CTATCTAGGTGGTCGTTGTGAAGGATGCAA
modifications: internal Cy3 after nt 15 of strand 1
Ku70;Ku80 [4]
  binding result: binds

B6: scr competitor (no BamHI site) (dsDNA)
DNA 1: CCGTCCAACAGCGAGGCTGATTAAAGAATTCG
DNA 2: CGAATTCTTTAATCAGCCTCGCTGTTGGACGG
[2]
  binding result: no binding

B7: 10ds (dsDNA)
DNA 1: CAGCGCTCGG
DNA 2: CCGAGCGCT
[5]; 5' overhang 1 nt on strand 1 as printed (meant blunt)
  Kd: 4750 ± 800 nM

B8: B-GC competitor (substitutions outside site) (dsDNA)
DNA 1: CACAACGCCGGATCCGGCCTAGAT
DNA 2: ATCTAGGCCGGATCCGGCGTTGTG
[2]
  binding result: binds

B9: Btn_12_f/Cy3_12_r (dsDNA)
DNA 1: TAGATAGAGCCA
DNA 2: TGGCTCTATCTA
Ku70;Ku80 [3]
  binding signal: 20 % PIFE

B10: BtnT_15_Cy3_60 (internal Cy3 60 nt from free end) (dsDNA)
DNA 1: TTGCATCCTTCACAACGACCACCTAGATAGAGCCAAGCAGTTTACGTACCGTCATTCCCTTCCACGTCATCGAGC
DNA 2: GCTCGATGACGTGGAAGGGAATGACGGTACGTAAACTGCTTGGCTCTATCTAGGTGGTCGTTGTGAAGGATGCAA
modifications: internal Cy3 after nt 15 of strand 1
Ku70;Ku80 [6]
  binding result: binds

B11: Btn_15_f/Cy3_15_r (dsDNA)
DNA 1: ACCTAGATAGAGCCA
DNA 2: TGGCTCTATCTAGGT
Ku70;Ku80 [7]
  Kd: 10 ± 5 nM
Ku70;Ku80 [3]; 5' Cy3 strand 2
  binding signal: ~50 % PIFE

B12: HP (stem-loop) (structured_DNA)
DNA: CAGCGCTCGGTTTTTTTTTTTTTTTTTTTTCCGAGCGCTG
[5]; hairpin
  Kd: 640 ± 100 nM

B13: Btn_13_f/Cy3_13_r (dsDNA)
DNA 1: CTAGATAGAGCCA
DNA 2: TGGCTCTATCTAG
Ku70;Ku80 [3]
  binding signal: ~50 % PIFE

B14: Btn_14_f/Cy3_14_r (dsDNA)
DNA 1: CCTAGATAGAGCCA
DNA 2: TGGCTCTATCTAGG
Ku70;Ku80 [3]
  binding signal: ~50 % PIFE

B15: Y (splayed arm) (structured_DNA)
DNA 1: CAGCGCTCGGTTTTTTTTTT
DNA 2: TTTTTTTTTTCCGAGCGCTG
[5]; fork 1:2, 10 bp duplex with two T10 arms
  Kd: 810 ± 100 nM
